The source of these data is patent US8093030B2, “Thermostable viral polymerases and methods of use” (Lucigen Corporation, priority 2005, dated 2012).

Series [1] deals with M13 primer on M13mp18 ssDNA. Nature of the series: Primer extension detected by Pico Green with chain terminating analogs. The series is classed as biochemical. The settings on record: control without chain terminating analogs, 2 mM each dNTP. The procedure: In a second experiment, incorporation was tested by detection of DNA synthesis using a double-strand specific fluorescent dye, Pico Green (Invitrogen). […] In separate reactions, a mix of ddGTP, ddATP ddTTP, ddCTP (2 mM each) and a mix of the four acyNTPs (2 mM each) were added to extension reactions followed by DNA polymerase. As a control, identical reactions without added chain terminating analogs were also performed. Polymerase 3173 mutant D49A was tested and, for comparison, T7 DNA polymerase, which incorporates ddNTPs with very low discrimination, and Klenow fragment of E. coli polymerase I and VENTR DNA polymerase (New England Biolabs), both of which have a higher discrimination, were also tested. Extension of the primer was detected by fluorescence of Pico Green dye.

In series [2] the test system is radiolabeled polynucleotide. The series can be described thus: Exonuclease assay (radioactive nucleotide release). In kind it is biochemical. The method, then: For example, polynucleotides can be synthesized such that a detectable proportion of the nucleotides are radioactively labeled. These polynucleotides are incubated in an appropriate buffer in the presence of the polypeptide to be tested. After incubation, the polynucleotide is precipitated and exonuclease activity is detectable as radioactive counts due to free nucleotides in the supernatant.
The presence of a 3′-5′ exonuclease domain in the 3173 DNA polymerase was detected by reduction in molecular weight of a 5′ fluorescently labeled oligonucleotide. Upon incubation of the primer/template complex described in Example 5, under the same conditions, a portion of the primer product was reduced in apparent molecular weight. This reduction in size was detected by capillary electrophoresis using an ABI 310 Genetic Analyzer operated in GeneScan mode. The presence of an exonuclease domain was confirmed by sequence alignment and by incubation of the polymerase with a radiolabeled polynucleotide, followed by digestion and precipitation with trichloroacetic acid. Radioactivity due to free nucleotides in the supernatant was measured.
An exonuclease assay was performed to confirm that exonuclease activity was eliminated in the mutants. […]
Exonuclease activity for polymerase 3173 was determined as described in Example 7.

Series [3] relates to primed single stranded M13 DNA. Nature of the series: Binding constant (Km) for primed template. In kind it is biochemical. The settings on record: nucleotides in excess, 70° C. The method, then:
The binding constant (reported as Km, the concentration at which the reaction rate is 50% maximal) for nucleotides by polymerase 3173 was determined using activated calf thymus DNA as a template. Reactions were maintained under pseudo-first order conditions using a molar excess of all components, with the exceptions of the enzyme and the nucleotides. Reactions (50 μl) were incubated at 70° C. and samples (5 μl each) were removed at varying time points and spotted on DE81 paper. Activity was determined as described in Example 6. The binding constant for primed template was similarly determined except that nucleotides were supplied in excess and the concentration of primed template (primed single stranded M13 DNA) was varied.

The subject of series [4] is plasmid and random primers. The series can be described thus: Strand displacement activity in rolling circle amplification (RCA) with random primers. In kind it is biochemical. The procedure:
As used herein, “strand displacement activity” refers to the ability of a polymerase to displace downstream DNA encountered during synthesis. Protocols such as, e.g., strand displacement amplification (SDA) may exploit this activity. Strand displacement activity may be determined using primer-initiated synthesis. A polymerase of the invention is incubated in the presence of a plasmid and random primers. A polymerase of the invention may extend the primer the complete circumference of the plasmid at which point the 5′ end of the primer is encountered. If the polymerase is capable of strand displacement activity, the nascent strand of DNA is displaced and the polymerase continues DNA synthesis. The presence of strand displacement activity results in a product having a molecular weight greater than the original template. The higher molecular weight product can be easily detected by agarose gel electrophoresis.
Strand displacement activity was determined using primer-initiated synthesis in a rolling circle amplification (RCA) protocol. Briefly, polymerase 3173 was incubated in the presence of a plasmid and random primers. Polymerase 3173 extended the primer the complete circumference of the plasmid at which point the 5′ end of the primer was encountered.

Series [5] concerns Poly rA: Oligo dT. The series can be described thus: Reverse transcriptase activity by incorporation of radiolabeled dTTP. In kind it is biochemical. The procedure: Reverse transcriptase activity was detected by incorporation of radiolabeled deoxyribonucleotide triphosphates into polydeoxyribonucleotides using a ribonucleic acid template. […] Incorporation of dTTP was detected as radioactive counts adhering to DE81 filter paper. Similar reverse transcription reactions were measured by incorporation of labeled dTTP on a poly rA template using 1 unit of Tth (Promega) and 1 unit MMLV reverse transcriptase (Novagen) according to the respective manufacturers' recommended conditions.

In series [6] the test system is single-stranded M13mp18 and double stranded pUC19 plasmid DNA. Nature of the series: High temperature isothermal RCA amplification with random decamer primers. In kind it is biochemical. The settings on record: both templates. The procedure: Five units of polymerase 3173 was used to amplify one nanogram each of single-stranded M13mp18 and double stranded pUC19 plasmid DNA. […] Either 0.5 μM or 5 μM of random decamer primers were added to each template. Reactions were incubated at 95° C. prior to addition of enzyme, then 16 hours at 55° C. with enzyme. One fiftieth of each reaction was resolved on a 1% agarose gel.
Results are shown in FIG. 5, Panel A. Lanes are as follows: five units of 3173 wild type DNA polymerase used to amplify M13mp18 single-stranded DNA template (lanes 2 and 3) and pUC19 double-stranded DNA (lanes 4 and 5) or no template (lane 6). Random ten nucleotide oligomer primers are added in the concentrations of 5 μM (lanes 2, 4 and 6) or 0.5 μM (lanes 3 and 5).
To determine if the amplification was specific for the template DNA, one μl of the amplification product of the positive pUC19 reaction was tested in a PCR reaction using primers specific for a 1 kb sequence in the bla gene of the original plasmid template. As a negative control, a reaction lacking deoxynucleotides was analyzed using PCR. As a positive control, the 1 kb sequence was amplified directly from 1 ng of pUC19.

Series [7] concerns lacIq gene. The series can be described thus: Fidelity assay, lacIq amplification with blue/white colony count. The settings on record: 25 PCR cycles, target size 349 for lacIq.
Method: Fidelity was determined by a modification of the standard assay in which the lacIq gene is amplified by the DNA polymerase of interest and inserted into a plasmid containing genes encoding a functional lacZ alpha peptide and a selectable marker. Primers of SEQ ID NOS:28 and 29 were used to amplify a sequence containing both the lacIq and the KanR gene. […] Normally a white phenotype is seen for clone containing this construct when plated on X-Gal. Mutation of the lacIq results in a blue phenotype for the colonies when plated on X-Gal.
For high fidelity PCR amplification, five units of the wild-type (proofreading) DNA polymerase 3173 (SEQ ID NO: 6) was tested using the following mix (50 mM Tris HCl (pH 9.0 at 25° C.), 50 mM KCl, 10 mM (NH4)2SO4, 1.5 mM MgSO4, 1.5 mM MgCl2, 0.1% triton-X100, 250 mM ectoine and 0.2 mM each of dGTP, dATP, dTTP and dCTP. Opposing primers of SEQ ID 28 and 29 (1 μM each) amplified the expected 2 k kb product from template SEQ ID 30 (10 ng). After thermal cycling (94° C. for 1 minute, 25 cycles of (94° C. for 15 seconds, 60° C. for 15 seconds, 72° C. for 2.5 minutes) and 72° C. 7 minutes), reaction products were quantified to determine “fold amplification,” (see below) using agarose gel electrophoresis. Both primers contain Eco109I sites. The PCR product was digested with Eco109I and inserted into the Eco109I site of pUC19. 10 G cells transformed by the construct were plated on LB plates containing ampicillin (100 μg/ml), kanamycin (30 μg/ml) and X-Gal (50 μg/ml). Blue and white colony counts were used for the fidelity determinations.
Series [8] concerns plasmid DNA nicked with N.Bst NB1. The series can be described thus: Isothermal RCA in the absence of added primers (nick-initiated synthesis).
Method: Suitably, nick-initiated polymerase activity can be detected, e.g., on an agarose gel, as an increase in the amount of DNA product due to synthesis in the presence of a nicking enzyme as compared to minimal or no product synthesized when nicking enzyme is absent from the reaction.
Reactions containing 10 ng of plasmid DNA, 20 mM Tris-HCl, 10 mM (NH4)2SO4, 10 mM KCl, 2 mM MgSO4, 0.1% Triton X-100, pH 8.8 at 25° C., and 200 μM each of dGTP, dATP, dTTP and dCTP were incubated for 2 hours at 56° C. with or without 10 units of nick-generating enzyme N.Bst NB1 (NEB) and either no DNA polymerase, 200 units of 3173 wt or 400 units of 3173 (D49A) mutant enzyme. Parallel reactions were performed in the absence of nicking enzyme, polymerase or both. Amplification products were analyzed by agarose gel electrophoresis.
In series [9] the test system is ROX-labeled primer annealed to single-stranded M13mp18 DNA. The series can be described thus: Fluorescent (ROX) primer extension in presence of ddNTPs. In kind it is biochemical. The method, then: In separate reactions, ddGTP, ddATP, ddTTP, and ddCTP were added to the above mix in concentrations of 50, 500 and 5000 μM each. Five units of polymerase 3173 mutant D49A were added and the reactions were incubated for 30 minutes at 70° C. Extension of the primer was detected by the ABI 310 Genetic Analyzer in Gene Scan mode.

Series [10] concerns activated ct DNA. Nature of the series: Inhibition of radioactive nucleotide incorporation by chain terminating analogs. The settings on record: control, 40 μM each dNTP, 70° C. 30 min. The series is classed as biochemical. The method, then:
Based on alignment with family A DNA polymerases, amino acid 418 of the polymerase 3173 mutant D49A was mutated from phenylalanine to tyrosine. The mutant protein was expressed and the cells lysed and heat-treated at 70° C. for 10 minutes to inactivate host proteins. The polymerase 3173 mutant D49A/F418Y was tested for inhibition of radioactive nucleotide incorporation using chain terminating nucleotide analogs in the same mix as unlabeled deoxynucleotides. […] In separate reactions both the D49A/F418Y mutant and purified polymerase 3173 mutant D49A were tested for inhibition by 4 mM each of ddNTPs and 4 mM each acycloNTPs. A control with no chain terminators was included. 50 μl reactions were incubated at 70° C. for 30 min. 15 μl of each reaction was spotted on DE81 paper, washed and counted, and units of activity were determined as described in Example 6. The degree of inhibition due to incorporation of dideoxy- and acyclo-nucleotides is tabulated below.

Changes are numbered by the printed parent chain. In names and notes the source's numbering stands.

B1: T7: T7 DNA polymerase, which incorporates ddNTPs with very low discrimination (protein, UniProt P00581 1-704, looked up)
DNA-directed DNA polymerase: MIVSDIEANALLESVTKFHCGVIYDYSTAEYVSYRPSDFGAYLDALEAEVARGGLIVFHNGHKYDVPALTKLAKLQLNREFHLPRENCIDTLVLSRLIHSNLKDTDMGLLRSGKLPGKRFGSHALEAWGYRLGEMKGEYKDDFKRMLEEQGEEYVDGMEWWNFNEEMMDYNVQDVVVTKALLEKLLSDKHYFPPEIDFTDVGYTTFWSESLEAVDIEHRAAWLLAKQERNGFPFDTKAIEELYVELAARRSELLRKLTETFGSWYQPKGGTEMFCHPRTGKPLPKYPRIKTPKVGGIFKKPKNKAQREGREPCELDTREYVAGAPYTPVEHVVFNPSSRDHIQKKLQEAGWVPTKYTDKGAPVVDDEVLEGVRVDDPEKQAAIDLIKEYLMIQKRIGQSAEGDKAWLRYVAEDGKIHGSVNPNGAVTGRATHAFPNLAQIPGVRSPYGEQCRAAFGAEHHLDGITGKPWVQAGIDASGLELRCLAHFMARFDNGEYAHEILNGDIHTKNQIAAELPTRDNAKTFIYGFLYGAGDEKIGQIVGAGKERGKELKKKFLENTPAIAALRESIQQTLVESSQWVAGEQQVKWKRRWIKGLDGRKVHVRSPHAALNTLLQSAGALICKLWIIKTEEMLVEKGLKHGWDGDFAYMAWVHDEIQVGCRTEEIAQVVIETAQEAMRWVGDHWNFRCLLDTEGKMGPNWAICH
B1: in series [1], the “Primer extension, dNTPs” value worked out at 100.0%.

B2: polymerase 3173: thermostable viral DNA polymerase with the amino acid sequence of SEQ ID NO:6 (protein)
chain: MGEDGLSLPKMMNTPKPILKPQPKALVEPVLCDSIDEIPAKYNEPVYFDLETDEDRPVLASIYQPHFERKVYCLNLLKEKVARFKDWLLKFSEIRGWGLDFDLRVLGYTYEQLRNKKIVDVQLAIKVQHYERFKQGGTKGEGFRLDDVARDLLGIEYPMNKTKIRETFKNNMFHSFSNEQLLYASLDAYIPHLLYEQLTSSTLNSLVYQLDQQAQKVVIETSQHGMPVKLKALEEEIHRLTQLRSEMQKQIPFNYNSPKQTAKFFGVNSSSKDVLMDLALQGNEMAKKVLEARQIEKSLAFAKDLYDIAKRSGGRIYGNFFTTTAPSGRMSCSDINLQQIPRRLRSFIGFDTEDKKLITADFPQIELRLAGVIWNEPKFIEAFRQGIDLHKLTASILFDKNIEEVSKEERQIGKSANFGLIYGIAPKGFAEYCIANGINMTEEQAYEISQKVEEVLHKDCRQHQVAYERFKYNEYVDNETWLNRTYRAWKPQDLLNYQIQGSGAELFKKAIVLLKETKPDLKIVNLVHDEIVVEADSKEAQDLAKLIKEKMEEAWDWCLEKAEEFGNRVAKIKLEVEEPHVGNTWEKP
modifications: Uncultured newly isolated virus
Turning to B2, the “Thermostability (T1/2 at 95°)” value came out at 10 min. For the same molecule, in [2], the “3′-5′ exonuclease activity” value is on record as “strong”. Moreover, the nuclease activity entry in series [2] (assay detects levels below 0.1% of wild-type) is listed as “potent”. For the same molecule, the Km in series [3] stood at 5.3 nM. The Strand displacement result in series [4] (listed as 3173) is given as “strong”. Besides, in series [4] (listed as Polymerase 3173), the Strand displacement result is “displaced the nascent strand of DNA and continued DNA synthesis”. For the same molecule, in series [5], the “reverse transcription in presence of manganese versus magnesium” value is given as “equivalent”. In series [5] (1 U enzyme, 60° C. 20 minutes (commercial enzymes per manufacturers' conditions)), the “Incorporation of dTTP” value worked out at 1.037 nmol. Also, in series [6] (5 units, 1 ng template, 16 hours at 55° C.), the estimated overall yield entry is recorded as “approximately 50 μg”. The amplification result in series [6] is listed as “up to 50,000 fold”. Besides, the Fidelity in [7] is reported as 6.98 × 10^4. Also, in [7] (listed as DNA polymerase 3173), the Fidelity turned out to be 6.98E+04. In addition, the Extension from nicks result in series [8] was “strong”. Further, the “yields of DNA product” value in series [8] (nicking enzyme present, 2 hours at 56° C., 200 units 3173 wt or 400 units D49A) was “multi-microgram yields”.

B3: polymerase 3173 mutant D49A/F418Y: double mutant of polymerase 3173 with both a D49A and a F418Y mutation, SEQ ID NO:27 (protein)
chain: B2 chain with D49A, F418Y
Regarding B3, in series [9] (0.2× ddGTP:dGTP), the “primer extension at 0.2× ratio of ddGTP:dGTP” value is listed as “nearly complete inhibition of primer extension”. Moreover, the “discrimination against chain terminating nucleotides” value in series [9] (conclusion drawn from the extension/incorporation data) is “nearly zero”. The “Activity, no terminators” value in [10] amounted to 100.0%.

Usually Km stands for the substrate concentration at which the rate is half of its maximum.
